{"source": "patent US20040209325", "proteins": {"B1": {"name": "OsMAPK5a, endogenous protein from rice leaf extracts (protein)", "chain": "MDGAPVAEFRPTMTHGGRYLLYDIFGNKFEVTNKYQPPIMPIGRGAYGIVCSVMNFETREMVAIKKIANAFNNDMDAKRTLREIKLLRHLDHENIIGIRDVIPPPIPQAFNDVYIATELMDTDLHHIIRSNQELSEEHCQYFLYQILRGLKYIHSANVIHRDLKPSNLLLNANCDLKICDFGLARPSSESDMMTEYVVTRWYRAPELLLNSTDYSAADVWSVGCIFMELINRQPLFPGRDHMHQMRLITEVIGTPTDDELGFIRNEDARKYMRHLPQYPRRTFASMFPRVQPAALDLIERMLTFNPLQRITVEEALDHPYLERLHDIADEPICLEPFSFDFEQKALNEDQMKQLIFNEAIEMNPNIRY"}}, "biological_target": "T1, bovine brain myelin basic protein (MBP, Sigma), P02687", "T1 chain": "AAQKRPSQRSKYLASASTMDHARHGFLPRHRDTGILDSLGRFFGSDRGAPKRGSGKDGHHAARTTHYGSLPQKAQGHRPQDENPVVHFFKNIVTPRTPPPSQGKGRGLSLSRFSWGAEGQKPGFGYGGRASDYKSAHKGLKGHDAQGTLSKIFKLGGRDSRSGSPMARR"}
{"protein": "B1", "values": [{"measurement": "in-gel kinase assay of immunoprecipitated OsMAPK5a", "value": "the OsMAPK5a kinase activity was significantly induced by P. grisea infection"}]}
